Assay results from patent US8748182B2, “Mutant proteins and methods for producing them” (Heptares Therapeutics Limited, priority 2007, dated 2014).
“And” between values parts separate entries of the source, which are not always exact repeats. Identical values can stand only once. Counter-ions that a name gives are not always drawn. Like-named read-outs stand apart in the source and are kept apart here.

Key:
βAR-m23 [1] = molecular target: T1, βAR-m23 (Meleagris gallopavo, UniProt P07700, A282L/C116L/F327A/F338M/M90V/R68S/Y227A); assay type: binding, turkey
T1 sequence (P07700 34-424 R68S/M90V/C116L/Y227A/A282L/F327A/F338M): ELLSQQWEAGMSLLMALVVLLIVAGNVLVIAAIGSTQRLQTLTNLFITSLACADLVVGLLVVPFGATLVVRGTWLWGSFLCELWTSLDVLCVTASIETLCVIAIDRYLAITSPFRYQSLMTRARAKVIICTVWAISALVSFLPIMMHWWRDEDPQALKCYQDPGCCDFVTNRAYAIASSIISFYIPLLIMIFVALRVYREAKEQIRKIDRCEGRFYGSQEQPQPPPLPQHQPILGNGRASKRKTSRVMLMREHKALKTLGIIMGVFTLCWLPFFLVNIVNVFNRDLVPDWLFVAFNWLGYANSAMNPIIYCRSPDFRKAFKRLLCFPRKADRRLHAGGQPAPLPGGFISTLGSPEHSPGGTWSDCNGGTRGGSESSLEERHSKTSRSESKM

βAR-m23 [2] = molecular target: T1, βAR-m23; assay: biochemical; assay type: binding, turkey
[3] = Thermostability assay of detergent-solubilised βAR34-424 and mutants expressed in E. coli ([3H]-DHA binding after heating 30 min)
Experimental: To determine Tm in the absence of ligand (apo-state, discontinuous lines), detergent-solubilised receptors were incubated for 30 minutes at the temperatures indicated before carrying out the binding assay. […] Data points are from duplicates measurements in a representative experiment.
Binding assays were performed using [^3H]-dihydroalprenolol (DHA) as radioligand as described under “Methods”. Samples were heated for 30 minutes at different temperatures before the assay. […] Data points are from duplicates of one single experiment. This experiment has been repeated several times with similar results.
Expression of βAR and the mutants was performed in XL10 cells (Stratagene). Cultures of 50 ml of 2×TY medium containing ampicillin (100 μg/ml) were grown at 37° C. with shaking until OD600=3 and then induced with 0.4 mM IPTG. Induced cultures were incubated at 25° C. for 4 h and then cells were harvested by centrifugation at 13,000×g for 1 min (aliquots of 2 ml) and stored at −20° C. For the assays, cells were broken by freeze-thaw (five cycles), resuspended in 500 μl of buffer [20 mM Tris pH 8, 0.4 M NaCl, 1 mM EDTA and protease inhibitors (Complete™, Roche)]. After an incubation for 1 h at 4° C. with 100 μg/ml lysozyme and DNase I (Sigma), samples were solubilized with 2% DDM on ice for 30 minutes. Insoluble material was removed by centrifugation (15,000×g, 2 min, 4° C.) and the supernatant was used directly in radioligand binding assays.
Single point binding assays contained 20 mM Tris pH 8, 0.4 M NaCl, 1 mM EDTA, 0.1% DDM (or corresponding detergent) with 50 nM [^3H]-DHA and 20-100 μg membrane protein in a final volume of 120 μl; equilibration was for 1 h at 4° C. Thermostability was assessed by incubating the binding assay mix, with or without [^3H]-DHA at the specified temperature for 30 minutes; reactions were placed on ice and [^3H]-DHA added as necessary and equilibrated for a further hour. […] Radioactivity was counted on a Beckman LS6000 liquid scintillation counter and data were analyzed by nonlinear regression using Prism software (GraphPad).

[4] = Stability of βAR-m23 and βAR34-424 in different detergents (Ni-NTA partially purified); assay type: physicochemical
Experimental: FIGS. 6A-6C Stability of βAR-m23 and βAR34-424 in five different detergents. […] Assays were carried out as described in the Methods and the Tm is shown at the intersection between the curves and the discontinuous line. Results are from duplicate measurements in a representative experiment performed in parallel.
Membranes prepared from E. coli expressing βAR-m23 or βAR34-424 were solubilised in DDM, bound to Ni-NTA agarose then washed with either DDM, decylmaltoside (DM), octylglucoside (OG), lauryldimethylamine oxide (LDAO) or nonylglucoside (NG). […] In contrast, functional βAR-m23 was still present in all detergents and the Tm could be determined. As expected, the smaller detergents were considerably more denaturing than either DDM (Tm 52° C.) or DM (Tm 48° C.), with Tms of 25° C. (NG), 23° C. (LDAO) and 17° C. (OG). The difference in Tm between βAR-m23 and βAR34-424 is about 20° C., irrespective of whether the receptors were solubilised in either DDM or DM; […] . The selection strategy used for the generation of βAR-m23 was chosen deliberately to be based upon thermostability, because it is far simpler to apply than selecting for stability in detergents of increasing harshness.
Receptors were eluted in 2×100 μl of buffer (0.4 M NaCl, 1 mM EDTA, 250 mM imidazole pH 8, plus the relevant detergent). […] .
Single point binding assays contained 20 mM Tris pH 8, 0.4 M NaCl, 1 mM EDTA, 0.1% DDM (or corresponding detergent) with 50 nM [^3H]-DHA and 20-100 μg membrane protein in a final volume of 120 μl; equilibration was for 1 h at 4° C. Thermostability was assessed by incubating the binding assay mix, with or without [^3H]-DHA at the specified temperature for 30 minutes; reactions were placed on ice and [^3H]-DHA added as necessary and equilibrated for a further hour. Receptor-bound and free radioligand were separated by gel filtration as described previously. Non-specific binding was determined in the presence of 1 μM of s-propranolol. […] Radioactivity was counted on a Beckman LS6000 liquid scintillation counter and data were analyzed by nonlinear regression using Prism software (GraphPad).

[5] = Thermostability of solubilised adenosine A2a receptor and mutants (radioligand binding after or during heating); assay type: physicochemical
Excerpt: FIG. 12 Flow chart showing the two different assay formats of ligand (+) and ligand (−) used to determine receptor thermostablity.
• 1. 315 site-directed mutants made between residues 2-316 of A2aR. • 2. All of these mutants have been assayed for thermostability using an assay measuring agonist and antagonist binding after the heating step (Ligand(−) format as described in FIG. 12). • a. […] Mutations have been combined to generate mutants in a putative antagonist conformation. Wildtype A2aR has a Tm of 31° C. with ZM241385 bound. • a. Rant17 A54L+K122A+L235A Tm 48° C. (ZM241385 bound) • b. Rant19 A54L,T88A,V239A+A204L Tm 47° C. (ZM241385 bound) • c. Rant21 A54L,T88A,V239A+K122A Tm 49° C. (ZM241385 bound) • 4. Mutations from the agonist screen have been combined, but have led to only a very low level of improvement in Tm of +2° C.

[6] = Stability of wild-type and mutant A2aR in different detergents; assay type: physicochemical
[7] = [3H]-DHA bound during the heating step
[8] = 1% DDM (no glycerol), apo-state, S.D. <1° C.
[9] = 1% DDM (no glycerol), ligand-occupied state, S.D. <1° C.
[10] = 0.3% NG, † = receptor too unstable to determine the Tm
[11] = 0.6% OG, † = receptor too unstable to determine the Tm

1-[4,6-propyl-^3H]-dihydroalprenolol [[^3H]-dihydroalprenolol]
Kd (βAR-m23 [1]; membranes, n=2, read-out: KD of [3H]-dihydroalprenolol): 6.5 ± 0.2 nM
Kd (βAR-m23 [1]; semipurified receptor, read-out: KD for [3H]-DHA binding): 12.5 nM

C=CCc1ccccc1OC[C@@H](O)CNC(C)C [alprenolol, (−) alprenolol tartrate salt]
EC50 (βAR-m23 [2]): 112 nM

m23: βAR34-424 with R68S, M90V, Y227A, A282L, F327A, F338M
increase in Tm compared to βAR34-424 (native protein) ([3]; DDM-solubilised, heated without ligand): 21 °C
Tm (° C.) ([3]; Table 2, heated 30 min without ligand, then [3H]-DHA binding, DDM-solubilised, E. coli, mean ± S.E. from duplicates): 52.8 °C and 52.8 ± 1.4 °C
Tm with antagonist bound [3, 7]: 55 °C
increase in Tm with bound antagonist versus without antagonist [3, 7]: 2 °C
further increase in Tm on adding one mutation to the preceding mutant ([3]; m4-1 to m4-7 to m4-2, m18 to m23): 3 °C
Tm in DDM ([4]; DDM): 52 °C
Tm in DM ([4]; DM (decylmaltoside)): 48 °C
Tm in LDAO ([4]; LDAO): 23 °C
Tm in NG ([4]; NG (nonylglucoside)): 25 °C
Tm in OG ([4]; OG (octylglucoside)): 17 °C
difference in Tm between βAR-m23 and βAR34-424 ([4]; solubilised in either DDM or DM): about 20 °C

wt: wild-type human adenosine A2a receptor (A2aR)
Tm (° C.) − agonist [5, 8]: 21 °C
Tm (° C.) − antagonist [5, 8]: 31 °C
Tm (° C.) + agonist [5, 9]: 29 °C
Tm (° C.) + antagonist [5, 9]: 32 °C
Tm (ZM241385 bound) [5]: 31 °C
Tm (° C.) Agonist-binding ([6]; 0.003% LDAO): 28 °C
Tm (° C.) Antagonist-binding ([6]; 0.003% LDAO): 32 °C
Tm (° C.) Agonist-binding ([6]; 0.006% FC12): 37 °C
Tm (° C.) Antagonist-binding ([6]; 0.006% FC12): 43 °C
Tm (° C.) Agonist-binding ([6]; 0.01% DDM): 27 °C
Tm (° C.) Antagonist-binding ([6]; 0.01% DDM): 25 °C
Tm (° C.) Agonist-binding ([6]; 0.1% DM): 23 °C
Tm (° C.) Antagonist-binding ([6]; 0.1% DM): 10 °C
Tm (° C.) Agonist-binding [6, 10]: †
Tm (° C.) Antagonist-binding [6, 10]: †
Tm (° C.) Agonist-binding ([6]; 0.3% NM): 22 °C
Tm (° C.) Antagonist-binding ([6]; 0.3% NM): <4 °C
Tm (° C.) Agonist-binding ([6]; 0.6% OG): <9 °C
Tm (° C.) Antagonist-binding [6, 11]: †

B1: Rant 21: A2aR with A54L, T88A, V239A+K122A (protein, UniProt P29274 1-412, looked up, variant A54L T88A V239A K122A)
Adenosine receptor A2a: MPIMGSSVYITVELAIAVLAILGNVLVCWAVWLNSNLQNVTNYFVVSLAAADILVGVLAIPFAITISTGFCAACHGCLFIACFVLVLAQSSIFSLLAIAIDRYIAIRIPLRYNGLVTGTRAAGIIAICWVLSFAIGLTPMLGWNNCGQPKEGKNHSQGCGEGQVACLFEDVVPMNYMVYFNFFACVLVPLLLMLGVYLRIFLAARRQLKQMESQPLPGERARSTLQKEVHAAKSLAIIAGLFALCWLPLHIINCFTFFCPDCSHAPLWLMYLAIVLSHTNSVVNPFIYAYRIREFRQTFRKIIRSHVLRQQEPFKAAGTSARVLAAHGSDGEQVSLRLNGHPPGVWANGSAPHPERRPNGYALGLVSGGSAQESQGNTGLPDVELLSHELKGVCPEPPGLDDPLAQDGAGVS
Tm (° C.) − antagonist [5, 8]: 41 °C
Tm (° C.) + antagonist [5, 9]: 49 °C
Tm (ZM241385 bound) [5]: 49 °C
Tm (° C.) Antagonist-binding ([6]; 0.003% LDAO): 42 °C
Tm (° C.) Antagonist-binding ([6]; 0.006% FC12): 49 °C
Tm (° C.) Antagonist-binding ([6]; 0.01% DDM): 39 °C
Tm (° C.) Antagonist-binding ([6]; 0.1% DM): 28 °C
Tm (° C.) Antagonist-binding [6, 10]: 22 °C
Tm (° C.) Antagonist-binding ([6]; 0.3% NM): 25 °C
Tm (° C.) Antagonist-binding [6, 11]: 23 °C
